{"source": "a protein production outcome set (Wang et al. 2014)"}
{"test": "label from the status in PepcDB records"}
{"sequence": "DISSTEIWDAIRRNSFLLYYQPKVDAKTNELIGFEGLIRLKTATAILAPADFFEDIALLNATREMQDFVAETAIEQINQLGGRFSISINIPAHYVVSSNYMTFLYDYVKEHLKYPECLEIEIIERGEITELAVADKNLRKIKKLGVTVSMDDFGKGYSSLAYLRSLPIDIVKTDMSFIALLKTDRKQQIIIQAIVNLCHDLGGKVVTEGVEDIEQVKTLREMKVDYFQGYYFSRP", "protein production": "not failed"}
{"sequence": "DLDGLLQRTVERARDMLDADSAFLLLATDDETELEVRASTGLPSARQRFARVPVDAGPGRYGSARMPAVHDDLTAVPGAVPLLSGTGMRSVVTVPLKVEGRLTGSLGVAAESPSRYSNEEALRLQFAADRIALAVESA", "protein production": "failed"}
{"sequence": "DLEFQKGVEQILNQYFNSELASGNTKYSEGVYAVVLNPNTGAVLSMAGLEHDLKTGEVSSNALGAVTEVFTPGSVVKGATLTAGWENGVLSGNQVLNDQPIQFAGSSPINSWFTNGSTPLTASQSLEYSSNTYMVQLALKLMGQDYHSGMTLSTDGYKEAMEKLRATYAQYGLGVSTGIDLPGESKGYTPEHYDPSNVLTESFGQFDNYTAMQLAQYAAAVANGGKRIAPHLVEGIYDNNKTGGLGNLVQSIDTKVLNNVSISSDDMGIIKEGFYNVVNGGSYATGKTLAKGASVPISAKTGTAEAYVTGDDGKSVYTSNLNVVAYAPSSNPQIAVAVVLPHETDLHGTTSHAITRDIINLYQKMYPMNQ", "protein production": "failed"}
{"sequence": "DLEVHGDKDDAELLIIGWGGTYGHLYETMERMRNAGKKVALAHFRFINPLPKNTAEVLQRYPKAVVAEQNLGQFALYLRGEVPGFHPLQFNRVTGQPLVMSEMVEVFTQMMEEK", "protein production": "failed"}
{"sequence": "DLQAYLQAHYDVLEGKIQLDINGTEIQKGVWVGSGAIIEPGAILNPPCVIGDNCRIESGAVIDSLSVIGNNNVIERDSSVKRSVIWDGNYIEYGSK", "protein production": "failed"}
{"sequence": "DLRSLFQTTVTEVRKLLVADRVMIIKVRQNKNFSWGEIQAEAQTDDKLCLLPPKERVPLSSRWIDHFAKGLILAMDDTDDQRADFDQSMLALAKANLVVPLFSGDRLWGVLSVHQCDGPRVWESSDIEFALKIALNLGVALQQAELLTESQRRSTALQSALGEVEAQKDYLARIAEEERALTRVIEGIRQTL", "protein production": "failed"}
{"sequence": "DPDEDSDNSAIYVQGLNDSVTLDDLADFFKQCGVVKMNKRTGQPMIHIYLDKETGKPKGDATVSYEDPPTAKAAVEWFDGKDFQGSKLKVSLARKKPPMN", "protein production": "not failed"}
{"sequence": "DRNSYSKTDYDATFMRMKEDHMKNGQLKPGYNLQIATNSQFVLSYNVYQNPTDTRTMIPFLNSIQETYGHLPEYIVADAGYGSESNYKAIIDDFNRTPLITYGMFIKDKTKKYKSDIFNTQNWNYDEIN", "protein production": "failed"}
{"sequence": "DSGYSRETRALLFRAYRHDPTFAYLFNAEREGYEQRVLATIRQLVKQHFLQNQPALGLFLEDRLVGVALIAPPLRRLGVTESWAWRLRMVMDTGLGCTQRYLAYYNAVLACLPSETVHVLPLIGLDPEFQGQKMGQDLSEQLLAALHDWCAVDENSQGIVVDTGNPRYLEFYKRQGYEEIGEIAVGPV", "protein production": "not failed"}
{"sequence": "DSKDLALCSMILTEMETHEDAWPFLLPVNLKLVPGYKKVIKKPMDFSTIREKLSSGQYPNLETFALDVRLVFDNCETFNEDDSDIGRAGHNMRKYFEKKWTDTFK", "protein production": "not failed"}
{"sequence": "DSSMKTDVVEHDKDYVVTAELPGFKKDDIHVDYHDETLRISGKTEVNQSAKDDDGRILRQERRSQNVARSFYLPGIDLKNVKATYADGILTLTLPKQTEVDGSHEISID", "protein production": "failed"}
{"sequence": "DTRWLAFNIQRAVFSDRRVREAITLAFDFEWMNKALFYNAWSRTNSYFQNTEYAARNYPDAAELVLLAPMKKDLPPEVFTQIYQPPVSKGDGYDRDNLLKADKLLNEAGWVLKGQQRVNATTGQPLSFELLLPASSNSQWVLPFQHSLQRLGINMDIRKVDNSQITNRMRNRDYDMMPRLWRAMPWPSSDLQISWSSEYINSTYNAPGVQSPVIDSLINQIIAAQGNKEKLLPLGRALDRVLTWNYYMLPMWYMA", "protein production": "failed"}
{"sequence": "DVTYDGHPVPGSPYTVEASLPPDPSKVKAHGPGLEGGLVGKPAEFTIDTKGAGTGGLGLTVEGPCEAKIECSDNGDGTCSVSYLPTKPGEYFVNILFEEVHIPGSPFKADIEMPFDPS", "protein production": "not failed"}
{"sequence": "EALQGLLGAGWWELCPDTAEILLASRLAASLHLPEDGARLNVQAWLELIHPADRGELSSRLQELKLGKPLLLNVRLHEPDPSAPQRWYRLQGQALGRGESQRLVGFMLDISD", "protein production": "failed"}
{"sequence": "EAPLLYGDSSPEIVLVGHGSTYGVIKEIVDIFSKDKKIAMMHFSQIYPFPERDRFDYIEFLKNANLVISVENNATGQFAKLMRAETGFEFARQILKYDGRPFTIEKLKEEIDAC", "protein production": "not failed"}
{"sequence": "ECTIKNNIENILRNSYINVGYEEVRSPTLEFYDVYNLENQPISQEKMYKLFDNTGRILVLRPDMTTPIARICATKLKNRVYPLKLSYTGNIYRMNKALNGKISEITQSGIEILGFSSLKADAEVIITAIKAILKTGLKNFKIEIGQVEFFKSIISDTALKEQDTEKLRNFIENKNFSKVEEFILRNSDLIGETSSKVLMNLPNLFGGKEVIEKAEQLTSNKQAIEALKKVRDLYDIVKRAGFGEYILIDLGMVQHINYYTGLIFRGYAHGIGDDLLSGGRYDKLLGQFGYDIPATGLAINVDNLVA", "protein production": "failed"}
{"sequence": "EEGLEIATLKRIVADMHAAAETAGVHIVTGDTKVVPKGTCDKLYITTAGVGIIPEGRTSADPQIGDAIIVSGPIADHGMAVMMARGDLAISAPIESDTRSVNGQIEALYAAGVTPRWMRDATRGGLATVMNELARATGLGVALNDPLPVRDMTRAACDMLGIDPMYVANEGTFVAIVPADQVDTALATIPEASCIGQIVEQPAASVVLRTGFGGSRMVDMLVGDPLPRIC", "protein production": "failed"}
{"sequence": "EELIEIREARMDDLDTIAKFNYNLAKETEGKELDMDVLTKGVKALLLDERKGKYHVYTVFDKVVAQIMYTYEWSDWRNGNFLWIQSVYVDKEYRRKGIFNYLFNYIKNICDKDENIVGMRLYVEKENINAKATYESLNMYECDYNMYEYEVIHS", "protein production": "not failed"}
{"sequence": "EFYCEVLLLDESKLTLTTQQQGIKKSTKGSVVLDHVFHHVNLVEIDYFGLRYCDRSHQTYWLDPAKTLAEHKELINTGPPYTLYFGIK", "protein production": "failed"}
{"sequence": "EIAVPTLFVHGYSGTANSFKGMINRLADDGIVTESLVMTVAADGSVSTTGSYDKFSHNPTIQVIFEDNKSSMVNQTQWIQNVMKELKNNYHIEKVDAVGHSMGGVSLTSYIEKVGSDKAYPVLENLVLIGAPLNGLVVGDNGVTAYDLTDEGPKQSSDRYSEFMKNKQKIPTNLQVLNIAGDMLDGTKSDGSVSVASALSGKFIFEGQAKSYEEKIFTGKKAAHSKLHENTDVDAKVANFLWGTEKVD", "protein production": "failed"}
{"sequence": "EITSANTEWFFNPNAYVIIAESVESGKIVGGARIHIVGGTQPLPIEDAIGKMDPHIYKLVEEHGKKGSGELCGLWNAREVAGMGISTMLTRAAIALAIQLNLSTLFVICAERTYQNIFKDQGFEIIP", "protein production": "failed"}
{"sequence": "EKEFYLDSSSEALEEKAITHTSKKPDTPEEITISLNGHLFTGNTEQPLLMQVEEAGLSINNSCRAGLCGACRVTLESGEVEQEDSPALNQKLKEAGMILACCSVPKTDVEIVD", "protein production": "failed"}
{"sequence": "EKRKVLIPIDFSNYSLKACQFGFSFANAINSEVVLLHAYFSPIYVPTIPYGTDNFNFQIEREESVKSMIETVHNELNKLSDTIKKKVESGEFPNIKYTCILRDGIPEEEILRYAKEYNPQIIIMGTRGRSQKDIDLIGSVTAEVIERSKSFVYAIPEHTPLK", "protein production": "failed"}
{"sequence": "EKTVRVVINFKKTQKTIVRVSPHASLQELAPIICSKCEFDPLHTLLLKDYQSQEPLDLTKSLNDLGLRELYAMDVNRE", "protein production": "not failed"}
{"sequence": "ELEPGAFSELYQRYRHCDAPICLYEQGRDSFEDEGRWRLILCATCGSHGTHRDCSSLRPNSKKWECNECLPA", "protein production": "not failed"}
{"sequence": "EMGVAYLTEVVVNEVVEAHEVPEVQHALNINSSESLIHIVRTRRLNQHVKIVDEDYFLKSIVSDIGNDVASDSIYDYLEKVLNLNISYSSKSITFEPFDEQAYQLFGDVSVAYSATVRSIVYLENTMPFQYNISKHLANEFKFNDFSRRRIK", "protein production": "failed"}
{"sequence": "EPRVNTSALQKIAADMSNIIENLDTRELHFEGEEVDYDVSPSDPKIQEVYIPFSAIYNTQGFKEPNIQTYLSGCPIKAQVLEVERFTSTTRVPSINLYTIELTHGEFKWQVKRKFKHFQEFHRELLKYKAFIRIPIPTRRHTFRRQN", "protein production": "failed"}
